This series can be described thus: protease stability score; higher = more stable; yeast display proteolysis, trypsin and chymotrypsin.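 Also: relative to predicted unfolded state with 0 unfolded-like and 1 meaning tenfold more protease.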
For “NDLEERTKKAAEELREMHKTGDEELWLKNMDPNVRLEIIIGDKLLIFHGREKWREWFHKYKNARHEDNDEHVQGDKTRINVHIVFNGRRVDVEITLRVIDGRVHSEHINII”, the protease stability score stood at 1.45.
The sequence “NDLERDAEHMLKLLIEAHLTGNEDIFEEFMDPNTRLVVGDKDNHGREFAEDYFKEWRVKHVRLKHYRSIGNYVEFDTETNVHVNGRDIRTETKITIVKIDGRWLLKVLIFG” registered a protease stability score of 1.72.
With “NEDDHIMEELTRIFIQNLRTGNEEEWAKYADPDTRLDFNGVDIIGRESILHWLKHMLTELRFTKIIFHHINAVNGRIHLDVEQHVEVGDKSQTIRSEIHIRVVNGVIKREYYRYK” the figure was 0.092.
The value for “NEDDKHAKHLLDLLIRTFITGDEHTLMNLLDPHTRYHQGEKELHGMEMLLHVERHHGATVHHFHVKSVRVIGDKIQFHVHVDHTIDGKRIRTDIDLWMEKVDGRWIVREIRIH” was 0.815; that for “NEDEDKMKEWIETLHKSLETGDEKTLSKLFDPRVQYDIGDKKYHGWRHYLELILRIDHERREIHHVEVVNGRVEIDVRVHIHINGQDYEKKTILHVEKIDGKWLNKKVQIV” was 1.16; that for “NEDEDWLRKVLHLLLHAAETGDEEILLHLLDPNARFIQGDKFKVGMDILETWIRKIKNLRIHDFELKDMRVYNGRIEVDGHLDRIINGQRERTDIILFLLKVDGRWYFEEIRIS” was 2.09.
As to “NEDEEAHHKLIKEYSRLVDTGDWRSLRRYLDPDYRLRVDGVDIVGRDELHRILEQMLDRVDHLHLNIERHRIQGDFLISDVKHHYEFNGKHVERKVIIYIWKFDGRWIMRYTEVL”, the protease stability score was 1.02.
The value for “NEDEEEARRWLEFFIKLYETGDEHMLEKMIDPDTRSYIDGKEFVGREEIRKLLRHLRIEHIHVKRFRAVNGKIDFDTHIVGEFNGRRKNTDVHIRATKIDGQWYLHEVDWK” was 1.64.
The value for “NEDEEHFKKWFEKYLRSLRTGDEENTRKLFDPHVRIEFENHELHGWENAVRFFRELHHRADVIHLELHDYTIVGDYVYIDVIVHLIYNGREFRHDVKIDASKIDGQWRIESLSIK” was 1.64.
In the case of “NEDEEIVRERFEEFLDMMFTGDWTSLEKLLDPHYRLDIGDKHHHGREEFIEFVRKIKNLRIDIKRVSVIVIDGRAINHVDGVLHFNGKTEKVHIIVVAKKIDGRWIVERVTIETH”, the protease stability score came out at 2.08.
The value for “NEDEEIWRKAHEFMIHAMKTGDEDVEKSLFDPHTRFEQGDKELHGREMIEHLLRLLRERFPNVQIRRMEIQHWDHFNGVLIEFGELRVDVNGRTVSLRIIIYAEKINGQWHVKRVEFD” was 1.52; that for “NEDEEKAKRFVKTYVHSLVTGDWKLWSEMADPNMILIYGDKTFIGREHFEEFFRRHIEELRFDSFHVDHVEIQGDKAELESRVSVIINGVERELETNMFLHKVDGRWLLTKFEVH” was 2.08.
Consider “NEDEEMIKTAIELLLRTWKTGDEHSLTELLDPHVRVHINGVDLHGRHAIHWLSRHMRFEEIRVDHFEIVNGRVHLETKVRIHYGDKSDTVESHVISLKVDGKWKTQRVQYH”, for which the protease stability score amounted to 0.954.
The value for “NEDEENMKKLLEDFLESLLTGDFDKLTRLADPHARIVQGDKELHGRDEIHEFWKRTMEHIRITHSYVREIDIINGRLHTDIHWDLQVGDKRYSHRVELILLKIDGKWVLHEVEFR” was 1.27.
With “NEDEESAERAVHLLRELIYTGDEDRMLKYADPNVKIVFNGVEMHGMDTFLRVFHRIKNLTIRRIHIDHIHLQGDKIELNVRMDTEFNGRHHDDSIHIRTLKVDGVWINHRTEYV” the figure was 1.04; with “NEDEESIRRAVEHWSKLILTGDESLLRQMADPNVRIQVGDKRIIGMDSLVKLMEDLGWEMEIRTKIRHTEIINGKMHTRTQLDIHFRQGDKKVDIHRDTEIVIEKVDGRWHIHSIRIE”, 0.752.
For the sequence “NEDEEVERKWLEFIRHALHTGDERILHELLDPHAQLIYGDKHIIGREEMTRQFIELGVDHMEDKRVHHQGDKIHQDGTEHVNGKERKVRFVVAKVNGRWIWERMHVI”, the protease stability score turned out to be 1.03.
With “NEDEEWIHKFWETLRKNIETGNEEEIEKLFDPNTRVEIGDKIIHGRRFIEHLKERADHVEEVHFQHKHIEIQGDKVQVHGELDHDIRIGDKRHRLRLDIIIILKKYNGRWHVHSFIIT” the figure was 1.2; with “NEDEEYVRLAHEILVETLRTGDEHITKRLADPHVRIDVGDKELHGWEDWLELLTHEARHLRTEIRVRNFDSQGDFIRVEVIIIIVVNGKRIEREVHYFSLKVDGRWLLTHVEIK”, 0.242.
The value for “NEDEHRARFIFRILTKAILTGDEDFLHRFADPNVRIHVNGVNLIGMEEWLRHLKELRIHFITSHVREIDKIDGVMIVHGEFVIDGEVNGKRDTWHTEIHLVITKVNGRWILHELHTR” was 2.58.
As to “NEDEKILEEAARLLFKALHTGDETTMLRLLDPNVRLHINGRDLIGREEMDRWWQELGLERISVHLDHLETHYIGNKIEIYIRGTVEFNGVRREIDVHNHALKVNGRWELKNVEIRHR”, the protease stability score worked out at 0.893.
“NEDEKLAEDAIQEYRHSVKTGDENFLKHLADPDVRMDYNGREYHGREEWEKFLRNILRHLRPKDFRIKHFDYYGDYMHFEGLHVGQINGKETHLHTEIIFLKINGRWHLRSIRIE” returned a protease stability score of 0.401.
The sequence “NEDEREFRIFLELFILAMRTGDETTFKKLLDPDVKFRINGKEYHGWEEVWHVLEEIRIHDIKLTDMERVGDKLHLITRVEGEFDGRRHEIDTRLHVRKIDGRWLLRTVEIS” had a protease stability score of 2.13.
With “NEDERETELFLRLFRRALLTGDWRAIEDLMDPNVMIHVNGREFHGREQYYKIVMNELTHWRLHHTKIDDIRLYDGVLRVQLRLQGEINGREDFLHLHVIIEKIDGKWIFRSVEIR” the figure was 1.91; with “NEDERLIKEFWRLLQEALKTGNWEMIAELIDPHVRIDIGDKQIHGREEFIKLVDHIRFDDVKTELKTVHVFDGRVEVRGHLTVHKTFNGQKIDERTDVNLDIEKINGVWYMTYVRIE”, 2.06.
With “NEDHDVLNDLMTDHVHAVLTGDFRTLIHNIDPHTRVDINGVHFHGREEAVHLFEDLANRVPGVKLDVEEWRTYGDKLRSNVRWHFDGRTIDIHLVFLKINGKWLLESVKIN” the figure was 1.9.
The sequence “NEEDEFMEVAVELMERTLKTGDERLLSELVDPNARIEFNGREWHGRKFLETLWRELTKKFPNMKVMFKIEYINSFEGHIEIEGILESNFDGRVESRRVHYNVSKINGRWIIEEIEIQ” yielded a protease stability score of 1.35.
With “NEEEDINHHIVELFFHLLHTGDWEELEKLADPHARLEINGRRFHGRENVVTQLWELLHRIDHVEIRDLRVQGDKVHVDTRLRIGDKEKKTEWDIVVVNGKIKRSRVRVH”, the protease stability score came out at 2.02.
The value for “NEEEEDMEHATKEHMELWRTGDEKRITELADPNVRVHVGEKEYHGREKLSEHIMRLGFDHVELTHFDVQGEKVISHIRVRFNGRDIEFLLIVLKVDGRWYEEQVNIRVS” was 0.66; that for “NEEEEEIKTLSEEILRAWMTGDFDHLRDMMDPNTKLDINGKEVHGREILINLLRKIMEDLGVKHIHIRHKEHQGNWTHLDERQIVGDKRINVHYIWVVVDGRIHSIRIEMR” was 1.16.
The sequence “NEEEEESKFANELWEETVKTGDERLNRSLADPNTRFHINGVDLHGWESMDETARRYKNITVRLHDMRTYNGRVHLDFEMRVGEFTTKVIIIARKFDGRWILKSIIVH” showed a protease stability score of 1.2.
With “NEEEEESKWAYEEMIKVVKTGDEERLKELADPHTRVHMLVNGRLHNLHGREFLVLAWRLLGFDHLELKRMHVEVVNGRVHINLHGHVEINGRTHTLHIHIDAEKVDGRWIVRRVEIRSE” the figure was 1.5.
With “NEEEEESRRAFHLLVELLRTGDEESFTKLADPHMRIIVDGREIHGREEMRRFMEEHWERFPNMKVRIEHFRVQGDKVTIHTVVHIGDKEIEVHIHARKVNGRWIMKELIIVTR” the figure was 0.552; with “NEEEEHIFELWELFLKASHTGDEDSLKEFADPNTRQIVDGQEIHGREKFTEHLSWRAKELRLESVHIRRLHIIDGRIHVDGLIRGRINGREIEIETEVISIKVNGKWILKEMNFK”, 1.28.

Source of the values: the NTF2 design screens of Basanta et al. (2020).
